Measurements taken from patent publication US20150183847A1.

Biological target: interleukin-1 receptor (human (CHO-derived cells) or murine (EL4 cells); not stated which gave the tables) (UniProt P14778)
Test: competition with 35S-IL-1Ra on IL-1 receptor cells, Kd=IC50/2

With “wild-type human IL-1Ra (from UniProt P18510 26-177)” the Kd was 0.15 to 0.4 nM.
